What was measured:
NEMO = NEMO (UniProt O88522 1-412); experiment: MyD88 co-immunoprecipitation from LPS-stimulated iBMDMs, western blot (FIG. 74A)
From the text: (§1) Data represent mean±SEM of triplicate wells. […] Data represent mean±SEM of triplicate wells.

IKKβ = molecular target: T1, IKKβ (UniProt O88351 1-757); experiment: as above
T1 sequence (looked up): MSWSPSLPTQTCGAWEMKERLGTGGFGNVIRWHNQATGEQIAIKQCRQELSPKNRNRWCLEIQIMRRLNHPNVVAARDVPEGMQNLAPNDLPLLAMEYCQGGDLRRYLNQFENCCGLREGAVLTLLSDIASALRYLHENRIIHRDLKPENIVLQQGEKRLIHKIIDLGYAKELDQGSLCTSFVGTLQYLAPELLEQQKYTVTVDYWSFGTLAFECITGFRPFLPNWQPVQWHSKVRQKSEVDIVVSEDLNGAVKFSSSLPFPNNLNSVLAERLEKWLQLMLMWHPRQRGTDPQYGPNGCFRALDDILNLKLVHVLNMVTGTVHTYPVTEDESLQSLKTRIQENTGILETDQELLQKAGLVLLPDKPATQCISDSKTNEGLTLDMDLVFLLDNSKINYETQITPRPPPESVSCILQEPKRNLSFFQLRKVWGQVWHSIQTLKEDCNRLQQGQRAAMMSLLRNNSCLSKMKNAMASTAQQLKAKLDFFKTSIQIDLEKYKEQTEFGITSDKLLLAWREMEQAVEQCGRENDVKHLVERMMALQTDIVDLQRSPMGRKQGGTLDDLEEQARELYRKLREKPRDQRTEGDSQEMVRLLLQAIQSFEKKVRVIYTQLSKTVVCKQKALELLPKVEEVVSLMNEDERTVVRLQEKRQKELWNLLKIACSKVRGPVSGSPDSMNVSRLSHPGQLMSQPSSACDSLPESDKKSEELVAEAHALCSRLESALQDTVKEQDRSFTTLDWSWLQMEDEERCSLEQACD
From the text: as §1

Sequence of NEMO (O88522 whole entry): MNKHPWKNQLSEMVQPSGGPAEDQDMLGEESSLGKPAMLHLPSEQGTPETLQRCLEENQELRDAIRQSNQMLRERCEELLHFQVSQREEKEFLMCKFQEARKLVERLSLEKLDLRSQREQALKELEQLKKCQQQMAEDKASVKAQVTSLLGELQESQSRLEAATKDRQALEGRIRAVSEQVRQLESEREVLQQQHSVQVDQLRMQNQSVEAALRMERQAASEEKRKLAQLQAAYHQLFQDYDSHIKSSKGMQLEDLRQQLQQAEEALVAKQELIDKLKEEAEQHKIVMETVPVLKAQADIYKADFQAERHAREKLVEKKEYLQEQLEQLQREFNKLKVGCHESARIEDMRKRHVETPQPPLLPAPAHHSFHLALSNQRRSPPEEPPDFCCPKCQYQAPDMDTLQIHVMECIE

B1: MyD88 (other, UniProt P22366 1-296, looked up)
chain: MSAGDPRVGSGSLDSFMFSIPLVALNVGVRRRLSLFLNPRTPVAADWTLLAEEMGFEYLEIRELETRPDPTRSLLDAWQGRSGASVGRLLELLALLDREDILKELKSRIEEDCQKYLGKQQNQESEKPLQVARVESSVPQTKELGGITTLDDPLGQTPELFDAFICYCPNDIEFVQEMIRQLEQTDYRLKLCVSDRDVLPGTCVWSIASELIEKRCRRMVVVVSDDYLQSKECDFQTKFALSLSPGVQQKRLIPIKYKAMKKDFPSILRFITICDYTNPCTKSWFWTRLAKALSLP
notes: Adaptor protein and core of the myddosome; also called endogenous MyD88; myeloid differentiation primary response gene 88
binding result (NEMO): no binding
binding result (IKKβ): no binding

Reference: patent US20200216506A1 (CHILDREN S MEDICAL CENTER, published 2020)
